Experimental data taken from patent publication US20240141072A1 (published 2024).
Substitutions are numbered along the chain they refer to.

T1: biotinylated human DLL3 protein expressed as a human IgG1 fusion protein (human, UniProt Q9NYJ7 27-492, limits assumed, biotinylated)
T1 sequence: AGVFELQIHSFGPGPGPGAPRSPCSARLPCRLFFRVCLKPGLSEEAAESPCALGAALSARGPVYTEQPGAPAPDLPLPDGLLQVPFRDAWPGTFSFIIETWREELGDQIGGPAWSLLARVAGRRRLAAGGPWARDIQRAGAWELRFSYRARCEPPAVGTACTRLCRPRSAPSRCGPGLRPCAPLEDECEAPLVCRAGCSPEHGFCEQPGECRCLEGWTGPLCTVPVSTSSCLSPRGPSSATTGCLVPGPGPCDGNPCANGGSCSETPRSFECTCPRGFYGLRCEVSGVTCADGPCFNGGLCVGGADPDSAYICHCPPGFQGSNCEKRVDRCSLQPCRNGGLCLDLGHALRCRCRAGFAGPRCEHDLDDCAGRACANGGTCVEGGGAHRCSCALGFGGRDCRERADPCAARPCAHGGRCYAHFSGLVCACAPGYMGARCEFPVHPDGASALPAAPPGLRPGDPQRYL

B1: 1H010 anti-DLL3 trispecific protein (other)
chain: EVQLVESGGGLVQPGGSLTLSCVASGSTRSINAMGWYRRAPGKQRELVAGISSDGSKVYNDSVKGRFTISRDNAKNSVYLQMNSLRAEDTAVYYCYYFRTVSGSSMRFWGQGTLVTVSS
notes: not shown: linker 1808, anti-albumin sdAb, linker 1808, anti-CD3 fragment, His6 1819
B2: 2F06 anti-DLL3 trispecific protein (other)
chain: B1 chain with R29S, M34Y, K57A, N60A, V101H, F108Y
notes: as for B1
B3: 2A011 anti-DLL3 trispecific protein (other)
chain: B1 chain with R29S, M34I, N60S, T100P, F108Y
notes: as for B1
B4: 1H011 anti-DLL3 trispecific protein (other)
chain: B1 chain with R29S, M34I, V101Q, F108Y
notes: as for B1
B5: 2D07 anti-DLL3 trispecific protein (other)
chain: B1 chain with R29S, M34V, S56T, N60R, S102Q, F108Y
notes: as for B1
B6: 2C09 anti-DLL3 trispecific protein (other)
chain: EVQLVESGGGLVQPGGSLTLSCVPSGSTSNINAMGWYRRAPGKQRELPAGISSDGTKIYADSAKVPFTITRDNAKNSVYLQMNSLRAEDTAVYYCYYFRTVSGTSMRYWGQGTLVTVSS
notes: as for B1
B7: 2C07 anti-DLL3 trispecific protein (other)
chain: B1 chain with R29S, G35A, N60A, T100S, F108Y
notes: as for B1
B8: 2D012 anti-DLL3 trispecific protein (other)
chain: B1 chain with S27K, R29S, N60T, V101R, F108Y
notes: as for B1
B9: 2H07 anti-DLL3 trispecific protein (other)
chain: B1 chain with R29S, M34V, K57T, N60A, S104H, F108Y
notes: as for B1
B10: 2H04 anti-DLL3 trispecific protein (other)
chain: B1 chain with R29S, G55T, N60A, S105Y, F108Y
notes: as for B1
B11: 2C01 anti-DLL3 trispecific protein (other)
chain: B1 chain with R29A, N60A, T100Y, F108Y
notes: as for B1
B12: 2B010 anti-DLL3 trispecific protein (other)
chain: B1 chain with R29S, I31R, V58L, N60L, S102L, F108Y
notes: as for B1
B13: 2F02 anti-DLL3 trispecific protein (other)
chain: B1 chain with R29S, M34V, N60A, D61G, S105Y, F108Y
notes: as for B1
B14: 2A05 anti-DLL3 trispecific protein (other)
chain: B1 chain with S27R, R29S, S104T, F108Y
notes: as for B1
B15: 2B011 anti-DLL3 trispecific protein (other)
chain: B1 chain with S27N, R29S, K57R, N60A, F108S
notes: as for B1
B16: 2G08 anti-DLL3 trispecific protein (other)
chain: B1 chain with R29S, S30Y, N60A, S104Q, R107G, F108Y
notes: as for B1
B17: 2H08 anti-DLL3 trispecific protein (other)
chain: B1 chain with R29S, V48A, S53K, N60A, V63A, M106S, F108Y
notes: as for B1
B18: 2B01 anti-DLL3 trispecific protein (other)
chain: B1 chain with R29S, S30L, N60A, T100H, F108Y
notes: as for B1
B19: 2B012 anti-DLL3 trispecific protein (other)
chain: B1 chain with S27T, R29S, S102R, F108Y
notes: as for B1
B20: 2G04 anti-DLL3 trispecific protein (other)
chain: B1 chain with R29S, K57L, N60A, T100I, V101L, F108Y
notes: as for B1
B21: 2A09 anti-DLL3 trispecific protein (other)
chain: B1 chain with R29S, I31R, D54N, N60S, R107S, F108Y
notes: as for B1
B22: 2A08 anti-DLL3 trispecific protein (other)
chain: B1 chain with R29K, N60R, V101S, F108Y
notes: as for B1
B23: 2C02 anti-DLL3 trispecific protein (other)
chain: B1 chain with R29S, M34V, N60V, S102Y, F108Y
notes: as for B1
B24: 2D04 anti-DLL3 trispecific protein (other)
chain: B1 chain with R29S, M34V, N60R, S102Q, F108Y
notes: as for B1
B25: 2D09 anti-DLL3 trispecific protein (other)
chain: B1 chain with S27T, R29S, V48A, S102R, F108Y
notes: as for B1
B26: 2B05 anti-DLL3 trispecific protein (other)
chain: B1 chain with S27T, R29S, S56T, N60A, R99H, F108Y
notes: as for B1
B27: 2D011 anti-DLL3 trispecific protein (other)
chain: B1 chain with S27T, R29S, N60A, S102W, F108Y
notes: as for B1
B28: 2G07 anti-DLL3 trispecific protein (other)
chain: B1 chain with R29S, G35A, N60A, S102Q, F108Y
notes: as for B1
B29: 2D06 anti-DLL3 trispecific protein (other)
chain: B1 chain with R29S, N60S, M106S, F108Y
notes: as for B1
B30: 2H06 anti-DLL3 trispecific protein (other)
chain: B1 chain with R29S, S30T, N60A, V101A, F108Y
notes: as for B1
B31: 2D010 anti-DLL3 trispecific protein (other)
chain: B1 chain with R29S, N60A, V101K, F108Y
notes: as for B1
B32: 2D02 anti-DLL3 trispecific protein (other)
chain: B1 chain with R29S, M34L, K57L, N60A, T100I, F108Y
notes: as for B1
B33: 2C010 anti-DLL3 trispecific protein (other)
chain: B1 chain with R29S, S30K, G55R, N60A, S102A, F108Y
notes: as for B1
B34: 2E08 anti-DLL3 trispecific protein (other)
chain: B1 chain with T28R, R29S, S53A, N60A, V101Q, F108Y
notes: as for B1
B35: 2F03 anti-DLL3 trispecific protein (other)
chain: B1 chain with R29S, G35A, V48A, G55N, N60A, S102G, F108Y
notes: as for B1
B36: 2C08 anti-DLL3 trispecific protein (other)
chain: B1 chain with R29S, S30R, N60Q, T100R, F108Y
notes: as for B1
B37: 2B07 anti-DLL3 trispecific protein (other)
chain: B1 chain with R29S, M34F, N60A, S102R, F108Y
notes: as for B1
B38: 2G09 anti-DLL3 trispecific protein (other)
chain: B1 chain with R29S, I51V, N60A, M106A, F108Y
notes: as for B1
B39: 2A06 anti-DLL3 trispecific protein (other)
chain: B1 chain with R29S, I31R, Y59T, N60A, V101R, F108Y
notes: as for B1
B40: 2C06 anti-DLL3 trispecific protein (other)
chain: B1 chain with R29N, N60K, F98Y, F108Y
notes: as for B1
B41: 2A03 anti-DLL3 trispecific protein (other)
chain: B1 chain with S27T, R29S, N60G, S105A, F108Y
notes: as for B1
B42: 2A01 anti-DLL3 trispecific protein (other)
chain: B1 chain with R29S, Y59V, N60A, V101L, F108Y
notes: as for B1
B43: 2D05 anti-DLL3 trispecific protein (other)
chain: B1 chain with R29S, S30R, N60A, V101A, F108Y
notes: as for B1
B44: 2E09 anti-DLL3 trispecific protein (other)
chain: B1 chain with T28V, R29S, N60A, D61S, V63A, V101L, F108Y
notes: as for B1
B45: 2G03 anti-DLL3 trispecific protein (other)
chain: B1 chain with R29S, K57L, N60A, F108A
notes: as for B1
B46: 2H03 anti-DLL3 trispecific protein (other)
chain: B1 chain with R29S, G35A, N60A, T100Q, F108Y
notes: as for B1
B47: 2B02 anti-DLL3 trispecific protein (other)
chain: B1 chain with R29S, G35A, N60A, V101K, F108Y
notes: as for B1
B48: 2F07 anti-DLL3 trispecific protein (other)
chain: B1 chain with R29S, M34V, K57S, N60A, G103T, F108Y
notes: as for B1
B49: 2F08 anti-DLL3 trispecific protein (other)
chain: B6 chain with P24A, T28K, N30S, D54N, I58V, P66R, T70S, S102L
notes: as for B1
B50: 2E06 anti-DLL3 trispecific protein (other)
chain: B1 chain with R29S, N60A, D61S, S102R, F108Y
notes: as for B1
B51: 2D03 anti-DLL3 trispecific protein (other)
chain: B1 chain with S27K, R29S, N60A, S104V, F108Y
notes: as for B1
B52: 2G011 anti-DLL3 trispecific protein (other)
chain: B1 chain with R29S, V48P, S53R, N60A, T100Y, F108Y
notes: as for B1
B53: 2F01 anti-DLL3 trispecific protein (other)
chain: B1 chain with R29S, N60S, T100L, F108Y
notes: as for B1
B54: 2F09 anti-DLL3 trispecific protein (other)
chain: B1 chain with R29S, G35A, V58L, N60A, F108Y
notes: as for B1
B55: 2B03 anti-DLL3 trispecific protein (other)
chain: B1 chain with R29S, K57L, N60A, R99T, F108Y
notes: as for B1

What follows are binders tested against T1, biotinylated human DLL3 protein … (assay: Octet BLI, single 50 nM).
Description: Using the conditioned medium with known concentrations of the anti-DLL3 trispecific proteins, the binding affinities of the anti-DLL3 trispecific proteins toward human DLL3 protein were measured using a method where biotinylated version of human DLL3 protein were expressed as a human IgG1 fusion protein, and the binding affinity measurement was carried out in an Octet instrument with streptavidin tips.
B1 gave a Kd of 8.4 nM.
For B2, the Kd was 10 nM.
B3 showed a Kd of 4 nM.
With B4 the Kd was 6.2 nM.
Work on B5 yielded a Kd of 6 nM.
With B6 the Kd was 6.4 nM.
B7 showed a Kd of 6.2 nM.
In the case of B8, the Kd is reported as 4.9 nM.
With B9 the Kd was 6.1 nM.
For B10, the Kd was 6.3 nM.
B11 gave a Kd of 12 nM.
In the case of B12, the Kd is reported as 10 nM.
For B13, the Kd was 9.6 nM.
With B14 the Kd was 8.9 nM.
Work on B15 yielded a Kd of 11 nM.
In the case of B16, the Kd is reported as 4.1 nM.
For B17, the Kd was 18 nM.
B18 was tested, and the Kd was 10 nM.
With B19 the Kd was 7.3 nM.
B20 showed a Kd of 11 nM.
B21 gave a Kd of 10 nM.
B22 showed a Kd of 7.7 nM.
B23 was tested, and the Kd was 4.1 nM.
B24 was tested, and the Kd was 6.2 nM.
With B25 the Kd was 8.2 nM.
B26 was tested, and the Kd was 7.4 nM.
B27 gave a Kd of 5.4 nM.
With B28 the Kd was 6.5 nM.
B29 was tested, and the Kd was 6.6 nM.
B30 was tested, and the Kd was 7.9 nM.
B31 showed a Kd of 7.3 nM.
With B32 the Kd was 14 nM.
B33 was tested, and the Kd was 7.6 nM.
In the case of B34, the Kd is reported as 17 nM.
B35 gave a Kd of 5.9 nM.
In the case of B36, the Kd is reported as 6.1 nM.
For B37, the Kd was 5.7 nM.
With B38 the Kd was 8 nM.
Work on B39 yielded a Kd of 8.9 nM.
B40 gave a Kd of 6.7 nM.
In the case of B41, the Kd is reported as 8.2 nM.
Work on B42 yielded a Kd of 8 nM.
Binder B43 has a Kd of 8.3 nM.
B44 was tested, and the Kd was 8.5 nM.
Binder B45 has a Kd of 5.6 nM.
For B46, the Kd was 5.3 nM.
Binder B47 has a Kd of 6.6 nM.
With B48 the Kd was 8 nM.
In the case of B49, the Kd is reported as 20 nM.
Work on B50 yielded a Kd of 11 nM.
B51 gave a Kd of 6.8 nM.
B52 gave a Kd of 13 nM.
B53 gave a Kd of 9.2 nM.
In the case of B54, the Kd is reported as 6.5 nM.
B55 showed a Kd of 7.6 nM.
